# Reference: PMC9482650, “Quantitative fragmentomics allow affinity mapping of interactomes” (Nature Communications, 2022)
# T1: DFNB31_3, Q9P202
# T1 sequence (Q9P202 811-907, limits assumed, looked up): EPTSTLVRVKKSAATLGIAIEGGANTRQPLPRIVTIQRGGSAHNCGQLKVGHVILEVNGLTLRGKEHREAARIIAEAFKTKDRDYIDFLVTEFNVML
# T2: DLG3_1, Q92796
# T2 sequence (Q92796 125-227, limits assumed, looked up): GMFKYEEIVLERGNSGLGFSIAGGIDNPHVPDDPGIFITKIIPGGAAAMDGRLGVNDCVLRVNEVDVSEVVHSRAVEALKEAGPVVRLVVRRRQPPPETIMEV
# T3: GRIP1_4, Q9Y3R0
# T3 sequence (Q9Y3R0 467-571, limits assumed, looked up): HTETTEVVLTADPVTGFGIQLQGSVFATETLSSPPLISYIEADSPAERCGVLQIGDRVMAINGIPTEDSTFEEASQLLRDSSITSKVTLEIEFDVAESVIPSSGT
# T4: GRIP1_7, Q9Y3R0
# T4 sequence (Q9Y3R0 999-1096, limits assumed, looked up): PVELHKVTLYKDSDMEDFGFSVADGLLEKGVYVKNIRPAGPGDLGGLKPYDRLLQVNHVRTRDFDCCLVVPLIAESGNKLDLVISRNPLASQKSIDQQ
# T5: LNX2_2, Q8N448
# T5 sequence (Q8N448 334-432, limits assumed, looked up): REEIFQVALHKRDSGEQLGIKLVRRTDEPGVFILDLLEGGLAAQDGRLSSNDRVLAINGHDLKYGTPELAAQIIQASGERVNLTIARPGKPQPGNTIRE
# T6: LRRC7, Q96NW7
# T6 sequence (Q96NW7 1440-1537, limits assumed, looked up): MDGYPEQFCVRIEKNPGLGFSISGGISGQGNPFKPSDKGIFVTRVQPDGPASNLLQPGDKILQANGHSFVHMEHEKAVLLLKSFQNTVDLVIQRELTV
# T7: MPDZ_10, O75970
# T7 sequence (O75970 1624-1722, limits assumed, looked up): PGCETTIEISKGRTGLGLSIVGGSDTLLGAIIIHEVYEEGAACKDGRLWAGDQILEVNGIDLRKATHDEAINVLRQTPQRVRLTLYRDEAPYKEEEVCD
# T8: PARD3B_1, Q8TEW8
# T8 sequence (Q8TEW8 196-299, limits assumed, looked up): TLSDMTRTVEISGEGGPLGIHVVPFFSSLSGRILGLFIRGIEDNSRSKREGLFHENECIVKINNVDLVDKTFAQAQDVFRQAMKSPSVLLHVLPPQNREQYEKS
# T9: PCLO, Q9Y6V0
# T9 sequence (Q9Y6V0 4491-4600, limits assumed, looked up): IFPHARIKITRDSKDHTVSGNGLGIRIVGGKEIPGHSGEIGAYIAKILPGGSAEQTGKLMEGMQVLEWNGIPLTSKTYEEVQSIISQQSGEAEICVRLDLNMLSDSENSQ
# T10: SIPA1L2, Q9P2F8
# T10 sequence (Q9P2F8 945-1036, limits assumed, looked up): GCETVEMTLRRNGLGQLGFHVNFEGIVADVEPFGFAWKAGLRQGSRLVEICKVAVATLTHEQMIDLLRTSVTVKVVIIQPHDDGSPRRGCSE
# T11: TIAM2, Q8IVF5
# T11 sequence (Q8IVF5 885-986, limits assumed, looked up): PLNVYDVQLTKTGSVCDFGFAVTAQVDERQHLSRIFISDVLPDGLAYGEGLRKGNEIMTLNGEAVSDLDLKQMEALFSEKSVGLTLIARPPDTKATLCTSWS
# How the values were obtained:
# Assay in all cases: holdup assay
# Parameters in all cases: key: below the threshold = too weak to quantify, mostly under pKd 3.1 to 4
# Conditions in all cases: plain residues with an end cap or a label only (N-terminal biotin on a linker: ado-ado)
# AHNAK1, Q09666 = molecular target: AHNAK1, Q09666
# DFNB31_3, Q9P202 = molecular target: T1, DFNB31_3, Q9P202
# DLG1_1, Q12959 = molecular target: DLG1_1, Q12959
# DLG2_2, Q15700 = molecular target: DLG2_2, Q15700
# DLG3_1, Q92796 = molecular target: T2, DLG3_1, Q92796
# DLG4_2, P78352 = molecular target: DLG4_2, P78352
# GRID2IP_1, A4D2P6 = molecular target: GRID2IP_1, A4D2P6
# GRIP1_4, Q9Y3R0 = molecular target: T3, GRIP1_4, Q9Y3R0
# GRIP1_7, Q9Y3R0 = molecular target: T4, GRIP1_7, Q9Y3R0
# HTRA1, Q92743 = molecular target: HTRA1, Q92743
# Inadl_1, Q8NI35 = molecular target: Inadl_1, Q8NI35
# LAP2, Q96RT1 = molecular target: LAP2, Q96RT1
# LNX2_2, Q8N448 = molecular target: T5, LNX2_2, Q8N448
# LRRC7, Q96NW7 = molecular target: T6, LRRC7, Q96NW7
# MAGI2_3, Q86UL8 = molecular target: MAGI2_3, Q86UL8
# MAGI2_6, Q86UL8 = molecular target: MAGI2_6, Q86UL8
# MPDZ_10, O75970 = molecular target: T7, MPDZ_10, O75970
# NHERF4_2, Q86UT5 = molecular target: NHERF4_2, Q86UT5
# NOS1, P29475 = molecular target: NOS1, P29475
# PARD3B_1, Q8TEW8 = molecular target: T8, PARD3B_1, Q8TEW8
# PCLO, Q9Y6V0 = molecular target: T9, PCLO, Q9Y6V0
# PDLIM1, O00151 = molecular target: PDLIM1, O00151
# SCRIB_2, Q14160 = molecular target: SCRIB_2, Q14160
# SCRIB_3, Q14160 = molecular target: SCRIB_3, Q14160
# SIPA1L2, Q9P2F8 = molecular target: T10, SIPA1L2, Q9P2F8
# TIAM2, Q8IVF5 = molecular target: T11, TIAM2, Q8IVF5
# TJP1_2, Q07157 = molecular target: TJP1_2, Q07157
# Sequence of TJP1_2, Q07157 (Q07157 181-274): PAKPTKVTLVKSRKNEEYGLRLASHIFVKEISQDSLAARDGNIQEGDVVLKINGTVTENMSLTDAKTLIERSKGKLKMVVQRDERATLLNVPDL
# Sequence of SCRIB_3, Q14160 (Q14160 999-1103): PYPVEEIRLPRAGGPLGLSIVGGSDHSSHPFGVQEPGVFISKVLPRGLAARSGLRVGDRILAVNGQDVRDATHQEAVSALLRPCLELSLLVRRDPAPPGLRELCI
# Sequence of LAP2, Q96RT1 (Q96RT1 other isoform, or with tags, fused parts or gaps): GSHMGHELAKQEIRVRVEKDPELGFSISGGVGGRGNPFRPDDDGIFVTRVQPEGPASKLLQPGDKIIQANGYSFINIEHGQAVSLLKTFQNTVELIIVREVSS
# Sequence of Inadl_1, Q8NI35 (Q8NI35 113-229): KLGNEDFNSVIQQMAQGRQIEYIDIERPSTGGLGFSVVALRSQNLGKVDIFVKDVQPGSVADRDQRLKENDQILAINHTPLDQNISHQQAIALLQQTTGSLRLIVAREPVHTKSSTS
# Sequence of NHERF4_2, Q86UT5 (Q86UT5 220-308): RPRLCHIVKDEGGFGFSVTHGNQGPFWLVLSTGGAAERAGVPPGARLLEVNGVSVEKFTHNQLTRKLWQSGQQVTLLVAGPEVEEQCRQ
# Sequence of DLG4_2, P78352 (P78352 155-259): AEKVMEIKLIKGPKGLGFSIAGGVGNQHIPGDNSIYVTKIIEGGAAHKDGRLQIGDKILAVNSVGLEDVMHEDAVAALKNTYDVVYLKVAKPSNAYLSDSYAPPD
# Sequence of AHNAK1, Q09666 (Q09666 4-100): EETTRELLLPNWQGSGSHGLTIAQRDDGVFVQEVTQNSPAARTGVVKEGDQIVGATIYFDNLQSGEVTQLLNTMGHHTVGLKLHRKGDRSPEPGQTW
# Sequence of PDLIM1, O00151 (O00151 1-87): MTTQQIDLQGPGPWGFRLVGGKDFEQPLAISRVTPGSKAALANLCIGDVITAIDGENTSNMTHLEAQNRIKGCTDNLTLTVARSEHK
# Sequence of MAGI2_3, Q86UL8 (Q86UL8 600-682): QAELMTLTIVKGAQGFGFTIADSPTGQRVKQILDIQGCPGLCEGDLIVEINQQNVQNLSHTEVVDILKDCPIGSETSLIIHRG
# Sequence of NOS1, P29475 (P29475 9-101): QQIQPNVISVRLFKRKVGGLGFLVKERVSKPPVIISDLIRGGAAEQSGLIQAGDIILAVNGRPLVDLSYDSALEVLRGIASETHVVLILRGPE
# Sequence of HTRA1, Q92743 (Q92743 360-477): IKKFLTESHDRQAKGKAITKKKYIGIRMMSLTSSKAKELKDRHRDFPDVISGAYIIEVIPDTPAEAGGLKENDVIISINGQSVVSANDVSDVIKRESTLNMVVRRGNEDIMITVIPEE
# Sequence of DLG2_2, Q15700 (Q15700 189-283): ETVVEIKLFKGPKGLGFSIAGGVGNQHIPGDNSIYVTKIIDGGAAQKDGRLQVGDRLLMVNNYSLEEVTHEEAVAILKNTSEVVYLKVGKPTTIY
# Sequence of MAGI2_6, Q86UL8 (Q86UL8 1141-1229): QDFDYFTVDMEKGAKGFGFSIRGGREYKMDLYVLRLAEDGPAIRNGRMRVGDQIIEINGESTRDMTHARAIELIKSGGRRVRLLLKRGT
# Sequence of GRID2IP_1, A4D2P6 (A4D2P6 1-87): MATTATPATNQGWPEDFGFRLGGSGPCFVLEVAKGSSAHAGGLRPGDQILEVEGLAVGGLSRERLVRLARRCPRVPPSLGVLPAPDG
# Sequence of SCRIB_2, Q14160 (Q14160 857-960): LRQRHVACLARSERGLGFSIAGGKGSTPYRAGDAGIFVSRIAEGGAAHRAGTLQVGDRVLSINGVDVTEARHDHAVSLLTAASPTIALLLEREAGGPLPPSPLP
"pKd (AHNAK1, Q09666)","pKd (DFNB31_3, Q9P202)","pKd (DLG1_1, Q12959)","pKd (DLG2_2, Q15700)","pKd (DLG3_1, Q92796)","pKd (DLG4_2, P78352)","pKd (GRID2IP_1, A4D2P6)","pKd (GRIP1_4, Q9Y3R0)","pKd (GRIP1_7, Q9Y3R0)","pKd (HTRA1, Q92743)","pKd (Inadl_1, Q8NI35)","pKd (LAP2, Q96RT1)","pKd (LNX2_2, Q8N448)","pKd (LRRC7, Q96NW7)","pKd (MAGI2_3, Q86UL8)","pKd (MAGI2_6, Q86UL8)","pKd (MPDZ_10, O75970)","pKd (NHERF4_2, Q86UT5)","pKd (NOS1, P29475)","pKd (PARD3B_1, Q8TEW8)",Binder,other results
below the threshold,4.62,4.23,3.97,3.65,3.95,below the threshold,3.56,below the threshold,5.48,below the threshold,3.79,4.06,3.97,below the threshold,4,4.3,below the threshold,3.81,5,"REKKFFCTIL [GNG4, P50150]","pKd (PCLO, Q9Y6V0): below the threshold; pKd (PDLIM1, O00151): below the threshold; pKd (SCRIB_2, Q14160): below the threshold; pKd (SCRIB_3, Q14160): 4.91; pKd (SIPA1L2, Q9P2F8): 4.01; pKd (TIAM2, Q8IVF5): 3.98; pKd (TJP1_2, Q07157): below the threshold"
below the threshold,below the threshold,3.5,3.67,below the threshold,3.88,below the threshold,below the threshold,below the threshold,3.74,below the threshold,3.72,4.05,below the threshold,below the threshold,4.16,below the threshold,below the threshold,below the threshold,below the threshold,"NLQEHSTTSV [RSBN1, Q5VWQ0]","pKd (PCLO, Q9Y6V0): below the threshold; pKd (PDLIM1, O00151): below the threshold; pKd (SCRIB_2, Q14160): below the threshold; pKd (SCRIB_3, Q14160): 3.63; pKd (SIPA1L2, Q9P2F8): below the threshold; pKd (TIAM2, Q8IVF5): below the threshold; pKd (TJP1_2, Q07157): below the threshold"
below the threshold,3.59,below the threshold,below the threshold,below the threshold,3.76,below the threshold,below the threshold,below the threshold,3.69,below the threshold,below the threshold,3.55,below the threshold,below the threshold,below the threshold,3.56,below the threshold,below the threshold,below the threshold,"ALPLPQSSTC [IGF1R, P08069]","pKd (PCLO, Q9Y6V0): below the threshold; pKd (PDLIM1, O00151): below the threshold; pKd (SCRIB_2, Q14160): below the threshold; pKd (SCRIB_3, Q14160): below the threshold; pKd (SIPA1L2, Q9P2F8): below the threshold; pKd (TIAM2, Q8IVF5): below the threshold; pKd (TJP1_2, Q07157): below the threshold"
below the threshold,below the threshold,below the threshold,below the threshold,below the threshold,below the threshold,below the threshold,below the threshold,below the threshold,below the threshold,below the threshold,3.74,below the threshold,below the threshold,below the threshold,below the threshold,below the threshold,below the threshold,below the threshold,3.59,"DHLGGGGESM [TNRC6A, Q8NDV7]","pKd (PCLO, Q9Y6V0): below the threshold; pKd (PDLIM1, O00151): below the threshold; pKd (SCRIB_2, Q14160): below the threshold; pKd (SCRIB_3, Q14160): below the threshold; pKd (SIPA1L2, Q9P2F8): below the threshold; pKd (TIAM2, Q8IVF5): below the threshold; pKd (TJP1_2, Q07157): below the threshold"
below the threshold,below the threshold,below the threshold,below the threshold,below the threshold,below the threshold,below the threshold,below the threshold,below the threshold,below the threshold,below the threshold,3.58,below the threshold,below the threshold,below the threshold,3.49,below the threshold,below the threshold,below the threshold,below the threshold,"IPGKEFDTPL [PLCB1, Q9NQ66]","pKd (PCLO, Q9Y6V0): below the threshold; pKd (PDLIM1, O00151): below the threshold; pKd (SCRIB_2, Q14160): below the threshold; pKd (SCRIB_3, Q14160): 4.3; pKd (SIPA1L2, Q9P2F8): below the threshold; pKd (TIAM2, Q8IVF5): below the threshold; pKd (TJP1_2, Q07157): below the threshold"
